Test results published in paper PMC5552905, “Mechanisms of peptide sex pheromone regulation of conjugation in Enterococcus faecalis” (MicrobiologyOpen, 2017).

T1: PrgX (Enterococcus faecalis (plasmid pCF10), UniProt Q04114 1-317)
T1 sequence: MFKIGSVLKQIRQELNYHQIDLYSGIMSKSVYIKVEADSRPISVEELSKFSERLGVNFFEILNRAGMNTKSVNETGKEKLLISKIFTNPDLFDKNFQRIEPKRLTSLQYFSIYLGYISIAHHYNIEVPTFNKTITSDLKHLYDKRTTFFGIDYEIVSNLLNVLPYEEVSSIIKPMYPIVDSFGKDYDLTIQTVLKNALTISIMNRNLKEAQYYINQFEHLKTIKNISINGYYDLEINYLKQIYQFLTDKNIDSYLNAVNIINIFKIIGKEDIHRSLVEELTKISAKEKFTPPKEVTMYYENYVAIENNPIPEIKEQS

B1: iCF10 (I, inhibitor peptide) (peptide)
peptide: AITLIFI
notes: source: synthetic peptide, bought: New England Peptides
B2: XBS1 DNA (dsDNA)
DNA 1: TGTTAATATTTTAATTTTAGGTATTGAATACGACACTCGAAGATGTGTTTATTAAGCTATATCCCTTTTTTTTAAAAAAAAATA
DNA 2: TATTTTTTTTTAAAAAAAAGGGATATAGCTTAATAAACACATCTTCGAGTGTCGTATTCAATACCTAAAATTAAAATATTAACA
B3: His-tagged PrgX (natural protein, Enterococcus faecalis (plasmid pCF10), UniProt Q04114 1-317, looked up)
chain: T1 sequence
notes: PrgX, master transcription regulator and sex pheromone receptor encoded by the Enterococcus faecalis plasmid pCF10; also called HisPrgX; Apo-PrgX
B4: PrgX‐C: PrgX/cCF10 complex (tetramer), purified by nickel affinity and size exclusion chromatography (protein)
chain 1: T1 sequence
chain 2: LVTLVFV
modifications: left off: His tag, end not stated, kept
B5: PrgX‐I: PrgX/iCF10 complex (tetramer), purified by nickel affinity and size exclusion chromatography (protein)
chain 1: T1 sequence
chain 2: AITLIFI
modifications: left off: His tag, end not stated, kept
B6: HisPrgX-I complex (complex)
chain 1: T1 sequence
chain 2: AITLIFI
notes: copies: 4 +
B7: HisPrgX-C complex (complex)
chain 1: T1 sequence
chain 2: LVTLVFV
notes: copies: 4 +
B8: cCF10 (C, clumping-inducing peptide, sex pheromone) (peptide)
peptide: LVTLVFV
notes: as for B1

How the values were obtained:
His-tagged PrgX = molecular target: B3; assay: SPR; conditions: both partners purified
PrgX = molecular target: T1, PrgX; assay: EMSA; apo (DMF); single shifted band; EMSA: 20 mM Tris-HCl pH 7.9, 0.1 M NaCl, 0.1 mM EDTA, 10% glycerol, 10 mM MgCl2, 1 ug poly-[d(A-T)], 0.1 ug poly-L-lysine, 20 ul, room temperature 15 min, 8 fmol DIG-labelled probe; conditions: protein: recombinant; tags: GST removed with PreScission (pGEX6p-1); chain copies: 2; label: 3' DIG-11-ddUTP; blunt
[1] = molecular target: the molecule itself; assay: SEC; Superdex 200 Hiload 16/600, 20 mmol/L Tris-HCl pH 8.0, 300 mmol/L NaCl; affinity purified HisPrgX, HisPrgX-C or HisPrgX-I loaded; calibrated with gel-filtration standards; no DNA
[2] = system: LT DNA (XBS1 and XBS2 operator sites), P Q promoter region; type: binding, Enterococcus faecalis (plasmid pCF10); conditions: for supershift of LT DNA by purified tetramers: SEC-purified PrgX-C or PrgX-I tetramers, LT probe containing both XBSs
From the text: The LT DNA template containing XBS1 and XBS2 sites (LT DNA, pCF10 sequence from nt 8029 to nt8185 (Hirt et al., 2005)) was PCR amplified from pCF10 using primers as described in. The XBS1 DNA template only has XBS1 site (pCF10 sequence 8029–8131nt) was made by annealing oligos ‐129/‐47‐F (5′[…] 3′) and −129/−47R (5′[…] 3′) to obtain double‐stranded DNA. The XBS2 DNA template only has the XBS2 site (pCF10 sequence from 8109 to 8290; −66 to +114 relative to the prgQ transcription initiation site), and was PCR amplified from pCF10 using primers as described in Caserta et al., 2012. In DNA templates with 5‐bp or 10‐bp insertions, sequence GTACC or […] was inserted between XBS1 and XBS2 sites and at a position of 6‐bp after the XBS1 site. DNA probes were labeled at the 3′‐ends with DIG‐11‐ddUTP using the DIG Gel Shift kit (Roche) by following the manufacturer's instructions. EMSA assays were performed in 20 μl reactions: DIG‐labeled DNA, purified proteins, 1 μg of poly‐[d(A‐T)], 0.1 μg of poly‐L‐lysine, 1 × reaction buffer (20 mmol L^−1 Tris‐HCl, pH 7.9, 0.1 mol L^−1 NaCl, 0.1 mmol L^−1 EDTA, 10% glycerol, 0.01 mol L^−1 MgCl2). The reactions were incubated at room temperature for 15 min and loaded onto 5% polyacrylamide gels in 1 × TBE buffer (Tris, Borate, EDTA, pH 7.9). After electrophoresis at 100 V for 1.5 h, the DNA–protein complexes and DNA probes were electrotransferred onto a nylon membrane (Roche) at 6 V for 2 h using the GENIE electrophoretic blotter (Idea Scientific). DIG‐labeled DNA fragments were visualized by an enzyme immunoassay (DIG Gel Shift Kit, Roche) following the manufacturer's instructions. […] For the experiments reported here the powdered form of the peptides were initially solubilized in pure DMF at 0.5 mg/ml, and then diluted 10‐fold in KPBS for use as a working stock solution, which was diluted into the EMSA reactions to a final peptide concentration of 40 nmol L^−1.
EMSA assays were performed using 8 fmol of digoxigenin‐labeled LT DNA probes with increasing amounts of PrgX protein. PrgX was preincubated for 5‐min at room temperature with 40 nmol L^−1 of C (a) or I (b) before adding LT DNA. PrgX concentrations: lanes 2 and 6: 38 nmol L^−1; lanes 3 and 7: 76 nmol L^−1; lanes 4 and 8: 190 nmol L^−1; lanes 5 and 9: 568 nmol L^−1. (c) Cartoon showing the predicted products formed by binding PrgX to LT DNA.

B1
Kd (His-tagged PrgX): 0.152 pM | koff (His-tagged PrgX): 2.09e-05 s⁻¹

B2
binding result (PrgX): binds

B3
stoichiometry N [1]: 2

B4
relative protein concentration for supershift / singly shifted probe [2]: slightly more of the singly shifted probe is detected relative to PrgX/I complexes at equivalent protein concentrations | supershift of LT DNA by purified tetramers [2]: nearly complete supershift to band II at extremely low PrgX concentrations

B5
relative protein concentration for supershift / singly shifted probe [2]: complete supershifting at slightly lower protein concentrations than PrgX/C | supershift of LT DNA by purified tetramers [2]: nearly complete supershift to band II at extremely low PrgX concentrations

B6
stoichiometry N [1]: 4

B7
stoichiometry N [1]: 4

B8
Kd (His-tagged PrgX): 0.686 pM | koff (His-tagged PrgX): 5.5e-05 s⁻¹
